# Measurements: article PMC3159463
# Read-outs that look alike come from different tables or passages of the source.
# T1: pED208 TraM (plasmid pED208 (IncFV, derivative of …, UniProt P33788 1-127))
# T1 sequence: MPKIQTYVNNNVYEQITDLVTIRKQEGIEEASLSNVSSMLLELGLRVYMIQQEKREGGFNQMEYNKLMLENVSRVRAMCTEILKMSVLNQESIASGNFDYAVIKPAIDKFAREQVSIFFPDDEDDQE
# T2: pED208 TraM N-terminal domain (plasmid pED208, UniProt P33788 2-52)
# T2 sequence: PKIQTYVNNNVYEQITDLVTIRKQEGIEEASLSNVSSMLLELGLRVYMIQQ
# T3: TraM[F1-55:pED208 56-127] chimera (F plasmid / plasmid pED208 chimera, UniProt P10026 1-55+P33788:56-127, internal_change)
# T3 sequence: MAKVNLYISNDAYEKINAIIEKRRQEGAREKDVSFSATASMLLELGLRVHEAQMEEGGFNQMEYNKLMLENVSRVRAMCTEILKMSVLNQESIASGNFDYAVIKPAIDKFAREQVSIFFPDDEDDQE
# T4: F TraM (F plasmid, UniProt P10026 1-127)
# T4 sequence: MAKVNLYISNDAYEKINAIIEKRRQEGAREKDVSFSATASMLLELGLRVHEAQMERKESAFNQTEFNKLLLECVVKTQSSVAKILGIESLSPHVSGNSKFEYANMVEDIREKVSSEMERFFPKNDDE
# How the values were obtained:
# [1] = biological target: pED208 TraM (plasmid pED208 (transfer-derepressed derivative of the Folac plasmid originally isolated from Salmonella typhi)) (UniProt P33788); assay: crystal structure
# pED208 TraM = biological target: T1, pED208 TraM; assay: EMSA
# [2] = biological target: T2, pED208 TraM N-terminal domain; assay: EMSA
# [3] = biological target: T3, TraM[F1-55:pED208 56-127] chimera; assay: EMSA
# F TraM [4] = biological target: T4, F TraM; assay: SEC-MALLS
# F TraM [5] = biological target: T4, F TraM; assay: SEC-MALLS; remark: listed apart in the source
molecule,measurement,setting,value
pED208 TraM (from UniProt P33788 1-127) (natural protein),stoichiometry N,[1],4
"pED208 sbmA 24 bp (pED 4site, palindromic) (dsDNA) DNA 1: AGATTCGAATCTAGATTCGAATCT DNA 2: AGATTCGAATCTAGATTCGAATCT",Kd,pED208 TraM,4.8 ± 0.7 nM
same,binding signal,[2],~500 fold lower affinity than full-length
F sbmA 30 bp (dsDNA) DNA 1: GATACCGCTAGGGGCGCTGCTAGCGGTGCG DNA 2: CGCACCGCTAGCAGCGCCCCTAGCGGTATC,binding result,[3],binds
same,binding result,F TraM [4],binds
F sbmAB 75 bp (dsDNA) DNA 1: TTATATTAGGGGTGCTGCTAGCGGCGCGGTGTGTTTTTTTATAGGATACCGCTAGGGGCGCTGCTAGCGGTGCGT DNA 2: ACGCACCGCTAGCAGCGCCCCTAGCGGTATCCTATAAAAAAACACACCGCGCCGCTAGCAGCACCCCTAATATAA,binding result,F TraM [5],binds
